Several values for one entry are separate records, joined by “and”; a condition that tells them apart may be missing. Equal values may be shown once.
Molecular target: the molecule itself
Assay: cryo-EM structure

B1: CXCR4EM (human CXCR4 with N119S, hemagglutinin signal peptide, C-terminal monomeric enhanced GFP and FLAG tag) (receptor)
chain: EGISIYTSDNYTEEMGSGDYDSMKEPCFREENANFNKIFLPTIYSIIFLTGIVGNGLVILVMGYQKKLRSMTDKYRLHLSVADLLFVITLPFWAVDAVANWYFGNFLCKAVHVIYTVSLYSSVLILAFISLDRYLAIVHATNSQRPRKLLAEKVVYVGVWIPALLLTIPDFIFANVSEADDRYICDRFYPNDLWVVVFQFQHIMVGLILPGIVILSCYCIIISKLSHSKGHQKRKALKTTVILILAFFACWLPYYIGISIDSFILLEIIKQGCEFENTVHKWISITEALAFFHCCLNPILYAFLGAKFKTSAQHALTSVSRGSSLKILSKGKRGGHSSVSTESESSSFHSS
  stoichiometry N: 3 and 4

Source: publication PMC11832422 (Nature Structural & Molecular Biology, 2024)
